Measured values: patent publication US20240123068A1 (KITE PHARMA, published 2024)

Columns and labels:
[1] = target: Human CD19, wild-type full-length protein expressed on cells (human) (UniProt P15391); assay: high-throughput flow cytometry, HEK-293T cells transfected with WT CD19; mean of four replicates; empty vector 0
[2] = target: Human CD19, wild-type full-length protein expressed on cells (human) (UniProt P15391); assay: high-throughput flow cytometry, HEK-293T cells with WT CD19 vs vector, at 0.25 ug/ml
[3] = target: FITC-Labeled human CD19 protein (ACROBiosystem, Cat-CD9-HF251) (human) (UniProt P15391); assay: flow cytometry, ND539 CAR T cells day 9; CD19-FITC protein premixed with anti-CD19 PE (FMC63 clone) 1:1; PE signal read on the cells that hold CD19-FITC by their CAR; competitor CD19 CAR 46 (untransduced 2.25)
[4] = target: FITC-Labeled human CD19 protein (ACROBiosystem, Cat-CD9-HF251) (human) (UniProt P15391); assay: flow cytometry, ND539 CAR T cells day 9; CD19-FITC protein premixed with anti-CD19 PE (FMC63 clone) 1:3; PE signal read on the cells that hold CD19-FITC by their CAR; competitor CD19 CAR 45 (untransduced 2.95)
[5] = target: FITC-Labeled human CD19 protein (ACROBiosystem, Cat-CD9-HF251) (human) (UniProt P15391); assay: flow cytometry, ND539 CAR T cells day 9; CD19-FITC protein premixed with anti-CD19 PE (FMC63 clone) 1:3; PE signal read on the cells that hold CD19-FITC by their CAR; competitor CD19 CAR 52 (untransduced 2.95)
[6] = target: FITC-Labeled human CD19 protein (ACROBiosystem, Cat-CD9-HF251) (human) (UniProt P15391); assay: flow cytometry, ND539 CAR T cells day 9; CD19-FITC protein premixed with anti-CD19 PE (FMC63 clone) 1:1; PE signal read on the cells that hold CD19-FITC by their CAR; competitor CD19 CAR 52 (untransduced 2.25)
[7] = target: FITC-Labeled human CD19 protein (ACROBiosystem, Cat-CD9-HF251) (human) (UniProt P15391); assay: flow cytometry, ND539 CAR T cells day 9; CD19-FITC protein premixed with anti-CD19 PE (FMC63 clone) 1:1; PE signal read on the cells that hold CD19-FITC by their CAR; competitor CD19 CAR 44 (untransduced 2.25)
[8] = target: FITC-Labeled human CD19 protein (ACROBiosystem, Cat-CD9-HF251) (human) (UniProt P15391); assay: flow cytometry, ND539 CAR T cells day 9; CD19-FITC protein premixed with anti-CD19 PE (FMC63 clone) 1:3; PE signal read on the cells that hold CD19-FITC by their CAR; competitor CAR-FMC63 (untransduced 2.95)
[9] = target: FITC-Labeled human CD19 protein (ACROBiosystem, Cat-CD9-HF251) (human) (UniProt P15391); assay: flow cytometry, ND539 CAR T cells day 9; CD19-FITC protein premixed with anti-CD19 PE (FMC63 clone) 1:3; PE signal read on the cells that hold CD19-FITC by their CAR; competitor CD19 CAR 42 (untransduced 2.95)
[10] = target: FITC-Labeled human CD19 protein (ACROBiosystem, Cat-CD9-HF251) (human) (UniProt P15391); assay: flow cytometry, ND539 CAR T cells day 9; CD19-FITC protein premixed with anti-CD19 PE (FMC63 clone) 1:3; PE signal read on the cells that hold CD19-FITC by their CAR; competitor CD19 CAR 43 (untransduced 2.95)
[11] = target: FITC-Labeled human CD19 protein (ACROBiosystem, Cat-CD9-HF251) (human) (UniProt P15391); assay: flow cytometry, ND539 CAR T cells day 9; CD19-FITC protein premixed with anti-CD19 PE (FMC63 clone) 1:3; PE signal read on the cells that hold CD19-FITC by their CAR; competitor CD19 CAR 46 (untransduced 2.95)
[12] = target: FITC-Labeled human CD19 protein (ACROBiosystem, Cat-CD9-HF251) (human) (UniProt P15391); assay: flow cytometry, ND539 CAR T cells day 9; CD19-FITC protein premixed with anti-CD19 PE (FMC63 clone) 1:1; PE signal read on the cells that hold CD19-FITC by their CAR; competitor CD19 CAR 45 (untransduced 2.25)
[13] = target: FITC-Labeled human CD19 protein (ACROBiosystem, Cat-CD9-HF251) (human) (UniProt P15391); assay: flow cytometry, ND539 CAR T cells day 9; CD19-FITC protein premixed with anti-CD19 PE (FMC63 clone) 1:1; PE signal read on the cells that hold CD19-FITC by their CAR; competitor CD19 CAR 42 (untransduced 2.25)
[14] = target: FITC-Labeled human CD19 protein (ACROBiosystem, Cat-CD9-HF251) (human) (UniProt P15391); assay: flow cytometry, ND539 CAR T cells day 9; CD19-FITC protein premixed with anti-CD19 PE (FMC63 clone) 1:1; PE signal read on the cells that hold CD19-FITC by their CAR; competitor CD19 CAR 43 (untransduced 2.25)
[15] = target: FITC-Labeled human CD19 protein (ACROBiosystem, Cat-CD9-HF251) (human) (UniProt P15391); assay: flow cytometry, ND539 CAR T cells day 9; CD19-FITC protein premixed with anti-CD19 PE (FMC63 clone) 1:1; PE signal read on the cells that hold CD19-FITC by their CAR; competitor CAR-FMC63 (untransduced 2.25)
[16] = target: FITC-Labeled human CD19 protein (ACROBiosystem, Cat-CD9-HF251) (human) (UniProt P15391); assay: flow cytometry, ND539 CAR T cells day 9; CD19-FITC protein premixed with anti-CD19 PE (FMC63 clone) 1:3; PE signal read on the cells that hold CD19-FITC by their CAR; competitor CD19 CAR 44 (untransduced 2.95)
[17] = target: T1, Human CD19, wild-type full-length protein expressed on cells (human, UniProt P15391 20-556); assay: scFv clone screen on NALM6 cells with and without CD19
T1 construct: also called WT CD19; CD19 wild type protein
T1 sequence: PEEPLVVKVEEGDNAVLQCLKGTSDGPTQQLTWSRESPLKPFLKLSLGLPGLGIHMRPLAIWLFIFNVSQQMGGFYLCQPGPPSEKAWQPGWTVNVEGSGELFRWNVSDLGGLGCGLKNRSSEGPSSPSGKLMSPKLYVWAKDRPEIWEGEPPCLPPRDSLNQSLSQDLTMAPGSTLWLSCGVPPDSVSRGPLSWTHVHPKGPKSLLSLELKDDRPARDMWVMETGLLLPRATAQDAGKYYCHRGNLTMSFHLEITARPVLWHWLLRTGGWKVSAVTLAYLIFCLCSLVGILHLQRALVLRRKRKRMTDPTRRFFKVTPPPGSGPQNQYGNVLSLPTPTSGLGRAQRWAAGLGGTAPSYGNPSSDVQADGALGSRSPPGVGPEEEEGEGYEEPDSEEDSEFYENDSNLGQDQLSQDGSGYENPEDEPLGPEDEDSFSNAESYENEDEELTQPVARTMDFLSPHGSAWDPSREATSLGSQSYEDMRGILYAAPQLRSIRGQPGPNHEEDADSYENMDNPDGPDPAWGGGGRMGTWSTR
Description: To ensure that the up to (30) clones could recognize native CD19 expressed on tumor cells, the clones (scFv) were also screened against NALM6 tumor cell line positive (+) CD19 expression (NALM6 cell line⁺ CD19). CD19 knockout Nalm6 cell line (NALM6 cell line⁻ CD1; or CD19KO Nalm6 cell line) were used as a negative control for the selection. CD19KO Nalm6 cell lines used for the screen were engineered CRISPR knocked-out (KO) Nalm6-CD19KO cells. Clones that bound CD19⁺ NALM6 tumor cells, but not CD19-NALM6 tumor cells (CD19KO) were selected (Step 4).

SIGLEC 9 = target: T2, SIGLEC 9 (UniProt Q9Y336 18-348, limits assumed); assay: counter-screen of the scFv clones against SIGLEC (Step 3)
T2 construct: Counter-screen reagent of Step 3

SIGLEC 7 = target: T3, SIGLEC 7 (UniProt Q9Y286 19-357, limits assumed); assay: as above
T3 construct: Counter-screen reagent of Step 3

SIGLEC 8 = target: T4, SIGLEC 8 (UniProt Q9NYZ4 17-363, limits assumed); assay: as above
T4 construct: Counter-screen reagent of Step 3
T4 sequence (Q9NYZ4 17-363 limits assumed): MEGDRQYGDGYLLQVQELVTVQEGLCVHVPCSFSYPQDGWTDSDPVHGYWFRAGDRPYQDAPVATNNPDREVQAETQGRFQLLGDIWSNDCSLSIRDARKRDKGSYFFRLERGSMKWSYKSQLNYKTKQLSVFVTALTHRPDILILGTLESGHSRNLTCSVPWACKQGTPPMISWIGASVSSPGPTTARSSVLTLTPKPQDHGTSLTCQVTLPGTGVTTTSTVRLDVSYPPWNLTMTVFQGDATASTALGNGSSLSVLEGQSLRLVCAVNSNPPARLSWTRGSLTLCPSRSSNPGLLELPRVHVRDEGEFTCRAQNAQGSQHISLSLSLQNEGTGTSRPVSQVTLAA

T3 sequence (Q9Y286 19-357 limits assumed): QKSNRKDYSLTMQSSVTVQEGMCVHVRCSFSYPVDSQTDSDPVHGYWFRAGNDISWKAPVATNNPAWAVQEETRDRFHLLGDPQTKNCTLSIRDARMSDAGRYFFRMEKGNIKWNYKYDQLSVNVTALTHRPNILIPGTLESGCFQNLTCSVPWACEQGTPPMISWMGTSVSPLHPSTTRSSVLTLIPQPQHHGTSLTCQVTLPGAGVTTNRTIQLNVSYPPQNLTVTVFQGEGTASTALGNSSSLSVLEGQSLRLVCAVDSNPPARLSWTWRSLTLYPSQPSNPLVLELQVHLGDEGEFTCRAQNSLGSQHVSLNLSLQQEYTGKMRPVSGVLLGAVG
T2 sequence (Q9Y336 18-348 limits assumed): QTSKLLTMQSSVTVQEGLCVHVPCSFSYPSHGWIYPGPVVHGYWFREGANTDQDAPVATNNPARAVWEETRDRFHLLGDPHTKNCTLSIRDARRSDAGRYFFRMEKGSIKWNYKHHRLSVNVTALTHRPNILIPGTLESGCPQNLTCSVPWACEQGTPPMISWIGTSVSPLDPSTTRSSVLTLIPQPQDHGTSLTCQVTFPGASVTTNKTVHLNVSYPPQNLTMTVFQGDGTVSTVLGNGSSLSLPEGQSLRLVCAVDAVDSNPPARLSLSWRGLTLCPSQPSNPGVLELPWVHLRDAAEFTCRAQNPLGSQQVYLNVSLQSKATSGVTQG

A mfi at 0.125 ug/ml [1] of 500000 mfi, a mfi at 0.250 ug/ml [1] of 750000 mfi and a mfi at 0.500 ug/ml [1] of 1.25e+06 mfi were found for “HIB19 monoclonal antibody (BioLegend, Cat no. 302202)” in this work. The mfi at 1.000 ug/ml [1] was 1.75e+06 mfi, the mfi at 2.000 ug/ml [1] was 1.75e+06 mfi and the mfi at 4.000 ug/ml [1] was 2e+06 mfi. For the same molecule, the Signal:Background [2] was 50.

A Gated for Anti-CD19 PE Expression [3] of 0.12 mfi, a Gated for Anti-CD19 PE Expression [4] of 18.1 mfi and a Gated for Anti-CD19 PE Expression [5] of 2.35 mfi were found for Anti CD19 (FMC63 Clone)-PE (antibody) in this work. It also gave a Gated for Anti-CD19 PE Expression [6] of 3.29 mfi, a Gated for Anti-CD19 PE Expression [7] of 1.73 mfi and a Gated for Anti-CD19 PE Expression [8] of 1.63 mfi. The Gated for Anti-CD19 PE Expression [9] was 0.48 mfi, the Gated for Anti-CD19 PE Expression [10] was 0.97 mfi and the Gated for Anti-CD19 PE Expression [11] was 0.78 mfi. It also gave a Gated for Anti-CD19 PE Expression [12] of 15.9 mfi, a Gated for Anti-CD19 PE Expression [13] of 0.045 mfi and a Gated for Anti-CD19 PE Expression [14] of 0.041 mfi. For the same molecule, the Gated for Anti-CD19 PE Expression [15] was 0.8 mfi and the Gated for Anti-CD19 PE Expression [16] was 1.26 mfi.

B1: CD19 E7 scFv (P4) (scFv)
scFv: DIQMTQSPSSLSASVGDRVTITCRASQDITRYLNWYQQKPGKAPKLLIYAASSLQSGVPSRFSGSGSGTDFTLTISSLQPEDFATYYCQQSYSYPPTFGQGTKVEIKGGGGSGGGGSGGGGSQVQLVESGGGVVQPGRSLRLSCAASGFTFRDYGMHWVRQAPGKGLEWVAVISYEGSNEYYADSVKGRFTISRDNSKNTLYLQMNSLRAEDTAVYYCARDRGFAGWYDYAFDPWGQGTLVTVSS
notes: also called 45; clone 45
B1: binds [17]; no binding (SIGLEC 9); no binding (SIGLEC 7). B1: no binding (SIGLEC 8).
